Data from patent publication US8188225B2, “Inorganic phosphate assays” (Medical Research Council, priority 2005, dated 2012).
Read-outs that look alike come from different tables or passages of the source.

Experiments:
[1] = Fluorescence titration of labelled PBP with Pi (binding capacity); conditions: 20° C.
Description: This fluorescence represents the value when approximately Pi-free. The lines shown in FIG. 3 are a best fit to data from 0 to 4 μM added Pi, and a horizontal line.

[2] = Fluorescence change of labelled PBP on Pi binding; conditions: for fluorescence increase with Pi: Pi-bound vs Pi-free, typical product, 10 mM PIPES pH 7.0
Source text: Fluorescence spectra were obtained under the same conditions. Excitation was at 555 nm. The fluorescence signals were normalised to 100%, representing the maximum intensity in the presence of Pi.

[3] = Stopped-flow dissociation kinetics of Pi from rhodamine-PBP; conditions: 10° C.
Description: Absorbance spectra were obtained using a Beckman DU640 spectrophotometer. Fluorescence measurements were obtained on a Perkin Elmer LS50B or Cary Eclipse fluorimeter with xenon lamp. Stopped flow experiments were carried out on a HiTech SF61MX apparatus, with a mercury-xenon lamp and HiTech IS-2 software, a monochromator and 4 mm slits on the excitation light (550 nm for rhodamine) and a 570 nm cut-off filter on the emission. The stated concentrations are those in the mixing chamber, unless stated otherwise.
0.25 unit mL^−1 PNPase and 100 μM 7-methylguanosine were present with the wild-type PBP to ensure that it was free of Pi prior to mixing.

[4] = Stopped-flow association kinetics of Pi with rhodamine-PBP; type: binding
Source text: A stopped-flow apparatus was used to determine association and dissociation kinetics of Pi from rhodamine-PBP.
A representative set of fluorescence traces is shown in FIG. 4A, all normalized to 100% for the initial intensity, but offset by 15% from each other. As the concentration of Pi and the rate increase, a significant proportion of the fluorescence trace is lost in the dead time of the stopped-flow instrument, causing an apparent decrease in intensity.
It is apparent that the rate reaches a limiting high value. This can be interpreted in terms of a two-step mechanism, binding itself (step 1), then a conformation change (step 2):
The fluorescence change occurs in step 2 and is likely to be concomitant with the closure of the binding cleft. It is this process that limits the overall rate at high Pi concentration. The data in FIG. 4B fitted to a hyperbola give 1/K1=2.2 μM and k+2+k−2=267 s^−1 (at 10° C.).

[5] = similar titration, reference 25; cited from earlier work

B1: rhodamine-PBP: E. coli PBP Ala17Cys/Ala197Cys (17/197) mutant doubly labelled with 6-IATR (conjugate, UniProt P0AG82 26-346, looked up, variant A17C A197C)
Phosphate-binding protein PstS: EASLTGAGATFPAPVYCKWADTYQKETGNKVNYQGIGSSGGVKQIIANTVDFGASDAPLSDEKLAQEGLFQFPTVIGGVVLAVNIPGLKSGELVLDGKTLGDIYLGKIKKWDDEAIAKLNPGLKLPSQNIAVVRRADGSGTSFVFTSYLAKVNEEWKNNVGTGSTVKWPIGLGGKGNDGIAAFVQRLPGAIGYVEYCYAKQNNLAYTKLISADGKPVSPTEENFANAAKGADWSKTFAQDLTNQKGEDAWPITSTTFILIHKDQKKPEQGTEVLKFFDWAYKTGAKQANDLDYASLPDSVVEQVRAAWKTNIKDSSGKPLY
modifications: doubly labelled with 6-IATR rhodamine
notes: E. coli PBP Ala17Cys/Ala197Cys (17/197) mutant doubly labelled with 6-IATR
binding capacity for Pi [1]: ~100% | fluorescence increase with Pi [2]: 18 fold | fluorescence increase with Pi, maximum / best batch ([2]; emission at 578 nm (λmax), depends on purity of doubly labelled species, listed as A17C-A197C): up to 30 fold | Pi dissociation rate ([3]; best fit exponential, excess 10 μM wild-type PBP): 6.6 s⁻¹ | Kd ([3]; read-out: overall dissociation constant k−2/k+2K1, from association and dissociation kinetics): 60 nM | k+2+k−2 (conformation change step 2) ([4]; hyperbola fit, 10° C., 10 mM PIPES pH 7.0): 267 s⁻¹ | Kd ([4]; hyperbola fit, 10° C., 10 mM PIPES pH 7.0, read-out: 1/K1 (binding step 1)): 2200 nM | association kinetics compared with MDCC-PBP ([4]; rhodamine-PBP at 10° C. vs MDCC-PBP at 5° C.): slower than that found with MDCC-PBP at 5 °C

B2: K229C-E302C: E. coli PBP Lys-229/Glu-302 to Cys double mutant, doubly labelled with 6-IATR (conjugate, UniProt P0AG82 26-346, looked up, variant K229C E302C)
Phosphate-binding protein PstS: EASLTGAGATFPAPVYAKWADTYQKETGNKVNYQGIGSSGGVKQIIANTVDFGASDAPLSDEKLAQEGLFQFPTVIGGVVLAVNIPGLKSGELVLDGKTLGDIYLGKIKKWDDEAIAKLNPGLKLPSQNIAVVRRADGSGTSFVFTSYLAKVNEEWKNNVGTGSTVKWPIGLGGKGNDGIAAFVQRLPGAIGYVEYAYAKQNNLAYTKLISADGKPVSPTEENFANAACGADWSKTFAQDLTNQKGEDAWPITSTTFILIHKDQKKPEQGTEVLKFFDWAYKTGAKQANDLDYASLPDSVVCQVRAAWKTNIKDSSGKPLY
modifications: 6-IATR labels
notes: E. coli PBP Lys-229/Glu-302 to Cys double mutant, doubly labelled with 6-IATR
binding capacity for Pi [1]: ~100%

B3: MDCC-PBP: prior-art MDCC-labelled PBP, label linked via a chiral centre on a succinimide (conjugate, UniProt P0AG82 26-346, looked up)
Phosphate-binding protein PstS: EASLTGAGATFPAPVYAKWADTYQKETGNKVNYQGIGSSGGVKQIIANTVDFGASDAPLSDEKLAQEGLFQFPTVIGGVVLAVNIPGLKSGELVLDGKTLGDIYLGKIKKWDDEAIAKLNPGLKLPSQNIAVVRRADGSGTSFVFTSYLAKVNEEWKNNVGTGSTVKWPIGLGGKGNDGIAAFVQRLPGAIGYVEYAYAKQNNLAYTKLISADGKPVSPTEENFANAAKGADWSKTFAQDLTNQKGEDAWPITSTTFILIHKDQKKPEQGTEVLKFFDWAYKTGAKQANDLDYASLPDSVVEQVRAAWKTNIKDSSGKPLY
modifications: MDCC fluorophore label
notes: prior-art MDCC-labelled PBP, label linked via a chiral centre on a succinimide
binding capacity for Pi [5]: 75%

B4: RRC2M: here the product of A17C-A197C mutant PBP labelled with the maleimide Rhodamine Red C2 (conjugate, UniProt P0AG82 26-346, looked up, variant A17C A197C)
Phosphate-binding protein PstS: EASLTGAGATFPAPVYCKWADTYQKETGNKVNYQGIGSSGGVKQIIANTVDFGASDAPLSDEKLAQEGLFQFPTVIGGVVLAVNIPGLKSGELVLDGKTLGDIYLGKIKKWDDEAIAKLNPGLKLPSQNIAVVRRADGSGTSFVFTSYLAKVNEEWKNNVGTGSTVKWPIGLGGKGNDGIAAFVQRLPGAIGYVEYCYAKQNNLAYTKLISADGKPVSPTEENFANAAKGADWSKTFAQDLTNQKGEDAWPITSTTFILIHKDQKKPEQGTEVLKFFDWAYKTGAKQANDLDYASLPDSVVEQVRAAWKTNIKDSSGKPLY
modifications: Rhodamine Red C2 maleimide labels
fluorescence increase with Pi [2]: little fluorescence change
